Measurements published in patent WO2009055074A2 (dated 2009).

The binders below were run against T1, extracellular domain (ECD) of Her2 (ErbB2) (human, UniProt P04626 23-652) (assay: three rounds of selection and screening ELISA, scFv on phage).
T1 construct: Target as named in the sentence on the thirty-one scFvs; also called ECD region of Her2

| Binder | binding result |
| --- | --- |
| S1R3B2_DP47_1E10 (scFv, V domains shown, also called Her2_S1R3B2_DP47_1E10) VH: not shown VL: HVILTQPPSTSGTPGQTVTISCSGSSSNIGSHYVYWYQQLPGTAPKLLIYRNNQRPSGVPDRFSGSKSGTSASLAISGLRSEDETDYYCAAWDDSLSGRVFGTGTKLTVLG | binds |
| S1R2A_CS_1D3 (scFv, V domains shown) VH: EVQLVQSGAEVKKPGASVKVSCKASGYSFTAFYIHWVRQAPGQGLEYLGWIDPNTGATKYAQRFQGRVIMTWDTSITTATMELSRLTSDDSAVYYCVRDLREWGYELSVEYWGRGTLVTVSS VL: not shown | binds |
| S1R3B2_BMV_1H5 (scFv, V domains shown, also called Her2_S1R3B2_BMV_1H5) VH: EVQLVQSGGGLVRPGGSLRLSCAASGFSFSDYYMTWIRQIPGKGLEWVAVIWNDGSDRYYADSVKGRFTISRDNSKNTLFLQMSSLRDEDTALYYCVRGGPTASSGFDYWGRGTLVTVSS VL: SSELTQPASVSGSPGQSITISCTGTSSDVGGYNYVSWYLQHPGKAPKLMIYEGSKRPSGVSNRFSGSKSGNTASLTISGLQAEDEADYYCSSYTTRSTRVFGGGTKLTVLG | binds |
| S1R3C1_CS_1D3 (scFv, V domains shown, also called Her2_S1R3C1_CS_1D3) VH: QVQLQESGPGLVKPSQTLSLTCGISGDSVSSNSAAWNWIRQSPTRGLEWLGRTYYRSSWYHNYAPSMNSRLTIIADTSKNQFSLQLNSVTPEDTAVYYCASGWAFDVWGRGTLVTVSS VL: QSVLTQPPSASGSPGQSVTISCTGTSSDVGAYDFVSWYQQHPGKAPKLMIYEVNKRPSGVPDRFSGSKSGNTASLTVSGLQAEDEADYYCSSYAGSKNLLFGGGTKLTVLG | binds |

Continued, values first:

| binding result | Binder |
| --- | --- |
| binds | S1R3C1_CS_1A6 (scFv, V domains shown, also called Her2_S1R3C1_CS_1A6) VH: EVQLVQSGAEVKKPGESLKISCKGFGYNFRSAWIGWVRQMPGKGLEWMGVIYPGDSDVRYSPSFQGQVTISADKSISTAYLQWSSLKASDTAMYYCTRPVGQWVDSDYWGKGTLVTVSS VL: QSVLTQPPSASGTPGQRVTISCSGSSSNIGTNTVNWYQQLPGTAPKLLIYTSNQRPSGVPARFSASNSGTSASLAISGLRSEDEADYYCAAWDDKLSGAVFGGGTKLTVLG |
| binds | S1R3B2_BMV_1G2 (scFv, V domains shown, also called Her2_S1R3B2_BMV_1G2) VH: QVQLVQSGAEVKKPGSSVKVSCKASGYTFTSYGISWVRQAPGQGLEWMGWISAYNGNTNYAQKLQGRVTMTTDTSTSTAYMELRSLRSDDTAVYYCARVPGVSGSYPDYYYMDVWGKGTLVTVSS VL: DIQMTQSPSTLSASIGDRVTITCRASEGIYHWLAWYQQKPGKAPKLLIYKASSLASGAPSRFSGSGSGTDFTLTISSLQPDDFATYYCQQYSNYPLTFGGGTKLEIKR |
| binds | S1R3B2_DP47_1E8 (scFv, V domains shown, also called Her2_S1R3B2_DP47_1E8) VH: not shown VL: QAVLTQPSAVSGAPGQRVTISCTGTSSNIGTNYLVHWYQQRPGTAPQLLVSGNNTRPSGVTDRFSVSKSATSASLAITGLQAEDEADYYCQTYDINLRVWVFGGGTKVTVLG |
| binds | S1R2C_CS_1H12 (scFv, V domains shown) VH: EVQLVETGGGLVQPGGSLRLSCAASGFTFSSYGMNWVRQAPGKGLEWVSYISSSGNTIFYADSVKGRFTISRDSAKNSVSLQMNSLRDEDTAVYYCASYYSYYYGMDAWGQGTMVTV VL: not shown |

What follows are binders tested against T1, extracellular domain (ECD) of Her2 … (assay: three rounds of selection and screening ELISA, soluble periplasmic scFv).

| Binder | binding result |
| --- | --- |
| S1R3C1_BMV_1H11 (scFv, V domains shown, scFv (one chain), soluble from the bacterial periplasm in the screening; also called Her2_S1R3C1_BMV_1H11) VH: GVQLVESGGGLVKPGGSLRLSCAASGFTFSSYNMNWVRQAPGKGLEWVSAISGSGGSTYYADSVTGRFTISRDNSKNTLYLQMNSLRAEDTAVYYCAKDTSGWYGDGMDVWGRGTLVTVSS VL: DIQMTQSPSTLSASIGDRVTITCRASEGIYHWLAWYQQKPGKAPKLLIYKASSLASGAPSRFSGSGSGTDFTLTISSLQPDDFATYYCQQYSNYPLTFGGGTKLEIKR | binds |
| S1R3A1_BMV_1G4 (scFv, V domains shown, scFv (one chain), soluble from the bacterial periplasm in the screening; also called Her2_S1R3A1_BMV_1G4) VH: QVQLVESGAEVKKPGASVKVSCKASGYTFTSYDINWVRQAPGQRLEWMGWINAGNGNTKYSQKFQGRVTITRDTSASTAYMELRSLRSDDTAVYYCARGRSYGHPYYFDYWGQGTLVTVSS VL: QSVLTQPASVSGSPGQSITISCTGTSSDVGGYNYVSWYQQHPGKAPKLMIYEGSKRPSGVSNRFSGSKSGNTASLTISGLQAEDEADYYCSSYTTRSTRVFGGGTKLTVLG | binds |
| S1R3A1_DP47_1A6 (scFv, V domains shown, scFv (one chain), soluble from the bacterial periplasm in the screening; also called Her2_S1R3A1_DP47_1A6) VH: not shown VL: HVILTQPPSASGTPGQRVTISCSGSSSNIGSNSVSWYQQLPGTAPKLLMYTNNQRPSGVPDRFSGSKSGTSASLAISGLQSEDEADYYCATWDASLNTWVFGGGTKVTVLG | binds |

More lines, now with the values ahead:

| binding result | Binder |
| --- | --- |
| binds | S1R3A1_CS_1B12 (scFv, V domains shown, scFv (one chain), soluble from the bacterial periplasm in the screening; also called Her2_S1R3A1_CS_1B12) VH: QVQLVQSGAEVKKPGASVKVSCQASGYTFSGHYMHLVRQAPGQGLEWMGWIHPTSGGTTYAQKFQGRVVMTRDTSISTAYMELSRLTSDDTAVYYCARMSQNYDAFDIWGQGTMVTVSS VL: QAVLTQPSSVSGAPGQRVTISCTGSSSNIGAGYDVNWYQQFPGTAPKIIVYGDRPSGAPDRFSGSKSGTSASLAITGLRAEDEADYYCQSWDSRLSSYVFGTGTKVTVLG |
| binds | S1R3B1_BMV_1A10 (scFv, V domains shown, scFv (one chain), soluble from the bacterial periplasm in the screening; also called Her2_S1R3B1_BMV_1A10) VH: QMQLVQSGGGVVQPGRSLRLSCAASGFTFSSYGMHWVRQAPGKGLEWVAVISYDGSIKYYADSVKGRFTISRDNSKNTLYLQMNSLRAEDTGVYYCSKDRYSSGWYSSDAFDIWGRGTMVTVSS VL: SSELTQDPAVSVALGQTVRITCQGDSLRSYYASWYQQKPGQAPVLVIYGKNNRPSGIPDRFSGSSSGNTASLTITGAQAEDEADYYCHSRDSSGNHVLFGGGTKLTVLG |
| binds | S1R3C1_DP47_1H1 (scFv, V domains shown, scFv (one chain), soluble from the bacterial periplasm in the screening; also called Her2_S1R3C1_DP47_1H1) VH: not shown VL: QSVLTQPPSVSVAPGQTARITCGGDKIGHKSVHWYQQKPGQAPVLLVYDDRKRPSGIPERFSGSNSGNTATLTISRVEAGDEAAYHCQVWDRSSDPYVFGTGTKVTVLG |
| binds | S1R3B1_BMV_1H11 (scFv, V domains shown, scFv (one chain), soluble from the bacterial periplasm in the screening; also called Her2_S1R3B1_BMV_1H11) VH: EVQLVQSGGGLVKPGGSLRLSCAASGFTFSSYGMHWVRQAPGKGLEWVAGIFYDGGNKYYADSVKGRFTISRDNSKNTLYLQMNSLRAEDTAVYYCARDRGYYYMDVWGKGTTVTVSS VL: QSVLTQPPSVSGAPGQRVTISCTGRSSNIGAGHDVHWYQQLPGTAPKLLIYGDSNRPSGVPDRFSGSRSGTSASLAITGLQAEDEADYYCQSYDSSLRGSVFGGGTKVTVLG |
| binds | S1R3B1_BMV_1G11 (scFv, V domains shown, scFv (one chain), soluble from the bacterial periplasm in the screening; also called Her2_S1R3B1_BMV_1G11) VH: QVQLVQSGGGLVQPGGSLRLSCAASGFTFSTYAMSWARQAPGKGLEWVSSISGDGGRILDADSAKGRFTISRDNSKNTLYLQMNGLRVEDTALYYCARADGNYWGRGTMVTVSS VL: QSVLTQPASVSGSPGQSITISCTGTSSDVGGYNYVSWYQQHPGKAPKLMIYEGSKRPSGVSNRFSGSKSGNTASLTISGLQAEDEADYYCSSYTTRSTRVFGGGTKLTVLG |
| binds | S1R3B1_BMV_1A1 (scFv, V domains shown, scFv (one chain), soluble from the bacterial periplasm in the screening; also called Her2_S1R3B1_BMV_1A1) VH: EVQLVQSGAEVKEPGASVKVSCKASGYDFSNYGFSWVRQAPGQGLEWMGWISSYNGYTNYAQRLQGRVTMTTDTSTSTAYMELRSLRSDDTAVYYCARDRGLGNWYFDLWGQGTLVTVSS VL: QSVLTQPASVSGSPGQSITISCTGTSSDVGGYNYVSWYQQHPGKAPKLMIYEGSKRPSGVSNRFSGSKSGNTASLTISGLQAEDEADYYCSSYTTRSTRVFGGGTKLTVLG |
